Results from patent publication US20080171347A1.

Target: mouse synaptosomes (synaptosome preparation carrying the BoNT/A acceptor complex)

active botulinum neurotoxin type A (BoNT/A) (from UniProt P0DPI1 2-1296)
percent inhibition (maximum at plateau): 78%
